The numbers were not newly measured in paper PMC6470598, which cites them from elsewhere.

pKd: −log10 of the molar value.

This data set concerns the target CTLA-4 (Homo sapiens) (UniProt P16410).
Chain of UniProt P16410 (P16410 36-161): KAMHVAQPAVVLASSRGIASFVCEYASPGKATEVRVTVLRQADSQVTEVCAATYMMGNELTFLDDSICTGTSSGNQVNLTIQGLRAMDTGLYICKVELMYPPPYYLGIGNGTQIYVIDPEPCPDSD

Broadly, the pKd is the Kd on a negative log10 scale, so that one unit is a factor of ten. Regarding tremelimumab, the negative-log Kd (pKd) is 8.23.
